Measurements: PMC11092324 (Journal of Virology, 2024)

How the values were obtained:
Details in all cases: both partners purified
[1] = target: T1, GI.9 Vancouver virus-like particles (VP1 protein of the norovirus GI.9 Vancouver strain) (Norovirus Hu/GI.9/Vancouver730/2004/CAN, UniProt F2XMU3, strain); assay: ELISA; sandwich ELISA: CV-1A1 Fv-clasp or scFv (0.7 µM in 50 mM carbonate buffer pH 9.6) coated on high-binding microplates, VLPs added in twofold serial dilutions, 37°C 2 h, detected with rabbit anti-VLP antisera; data fit to the Michaelis-Menten equation, Km taken as Kd (affinity or avidity); concentration counted as VP1
T1 construct: also called Vancouver VLPs; GI.9 Vancouver VP1

[2] = target: T1, GI.9 Vancouver virus-like particles …; assay: ELISA; sandwich ELISA: Strep-tagged CV-2F5 scFv (0.7 µM in PBS) held on Strep-Tactin-coated wells, VLPs added in twofold serial dilutions, 37°C 2 h, detected with rabbit anti-VLP antisera; data fit to the Michaelis-Menten equation, Km taken as Kd (affinity or avidity); concentration counted as VP1
[3] = target: T2, P domain of the VP1 protein from the GI.4 Chiba strain (P dimer) (norovirus GI.4 Chiba strain); assay: crystal structure; Chiba P domain mixed with CV-2F5 scFv in a molar ratio of 1:1.2, complex isolated by size-exclusion chromatography, crystallized by sitting drop at 25°C in 35% Tacsimate pH 7.0
T2 construct: also called Chiba P domain protein; Chiba P dimers; source: E. coli cell-free protein synthesis system, purified (HisTrap, SUMO protease, HiTrapQ)
T2 chain: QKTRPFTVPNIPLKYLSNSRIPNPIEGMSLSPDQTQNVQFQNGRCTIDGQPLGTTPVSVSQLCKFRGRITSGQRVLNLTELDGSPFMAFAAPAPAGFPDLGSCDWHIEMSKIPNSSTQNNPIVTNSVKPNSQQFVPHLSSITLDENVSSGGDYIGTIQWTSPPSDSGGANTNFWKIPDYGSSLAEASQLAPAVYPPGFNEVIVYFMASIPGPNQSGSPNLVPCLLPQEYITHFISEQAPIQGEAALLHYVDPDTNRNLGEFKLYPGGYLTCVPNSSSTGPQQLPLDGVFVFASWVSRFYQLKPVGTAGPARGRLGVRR

B1: CV-1A1 Fv-clasp (other)
VH: EVQLVESGAEVKKPGASVKVSCKASGYTFTSLYMHWVRQAPGQGLEWMGMINPSGGGTWNAQKFQGRVTMTRDTSTSTVYMELRSLRSDDTAMYYCARDSDQYSQGLGYWGQGTLVTVCS
VL: QSALTQPASVSGSPGQSITISCTGTSSDVGGYNYVSWYQQHPGKAPKLMIYDVSKRPSGVSNRFSGSKSGNTASLTISGLQAKDEADYYCSSYTSSSTWVFGGGTKLTVL
notes: also called CV-1A1 Fv-clasp fragments; Fv-clasp version of CV-1A1; source: E. coli cell-free protein synthesis system (with DsbC and Skp), purified (HisTrap, TEV protease, HiTrap Q)
binding result [1]: no binding

B2: Strep-tagged CV-2F5 scFv (scFv, V domains shown)
VH: EVQLVESGGGLVKPGGSLRLSCAASGFTFSSYNMNWVRQAPGKGLEWVSSISTSSRYIYYADSVKGRFTISRDNAKNSLYLQMNSLRAEDTAVYYCAREEGSVDYGMDVWGQGTTVTVSS
VL: not shown
notes: also called CV-2F5-Strep; source: E. coli harboring pETSUMO-CV-2F5-Strep, purified (TALON resin, SUMO protease on the resin); not shown: His tag, N-terminal, cleaved; SUMO, N-terminal, cleaved; Strep-tag, C-terminal, kept
Kd [2]: 14.4 nM

B3: CV-2F5 scFv (N11-TEV construct, tag removed) (scFv, V domains shown)
VH: B2 VH
VL: not shown
notes: also called CV-2F5 antibody fragment; CV-2F5 scFv antibodies; source: E. coli cell-free protein synthesis system, purified (HisTrap, TEV protease, HiTrap SP)
stoichiometry N [3]: 1
